The stoichiometry N is a count of units in the complex or per binding partner.

From publication PMC9823007 come the findings set out here.

In this assay the target is NyxA (for SEC-MALS and SAXS) (Brucella abortus 2308) (UniProt Q2YPD9). Put plainly: SEC-MALS. In general terms: SEC sorts molecules by how far they enter the pores of the column.

For the substance “NyxA (for SEC-MALS and SAXS) (from UniProt Q2YPD9 1-129) (natural protein)”, the stoichiometry N is 2.
